In paper PMC11381544 (Nature Communications, 2024):
Where a chain is given by its changes, count along the chain named. Numbers in names are those of the source.

B1: PCP-P3H1D589A: PCP complex with P3H1 active-site mutation D589A (protein)
chain: EVESEAGWGMVTPDLLFAEGTAAYARGDWPGVVLSMERALRSRAALRALRLRCRTQCAADFPWELDPDWSPSPAQASGAAALRDLSFFGGLLRRAACLRRCLGPPAAHSLSEEMELEFRKRSPYNYLQVAYFKINKLEKAVAAAHTFFVGNPEHMEMQQNLDYYQTMSGVKEADFKDLETQPHMQEFRLGVRLYSEEQPQEAVPHLEAALQEYFVAYEECRALCEGPYDYDGYNYLEYNADLFQAITDHYIQVLNCKQNCVTELASHPSREKPFEDFLPSHYNYLQFAYYNIGNYTQAVECAKTYLLFFPNDEVMNQNLAYYAAMLGEEHTRSIGPRESAKEYRQRSLLEKELLFFAYDVFGIPFVDPDSWTPEEVIPKRLQEKQKSERETAVRISQEIGNLMKEIETLVEEKTKESLDVSRLTREGGPLLYEGISLTMNSKLLNGSQRVVMDGVISDHECQELQRLTNVAATSGDGYRGQTSPHTPNEKFYGVTVFKALKLGQEGKVPLQSAHLYYNVTEKVRRIMESYFRLDTPLYFSYSHLVCRTAIEEVQAERKDDSHPVHVANCILNAETLVCVKEPPAYTFRDYSAILYLNGDFDGGNFYFTELDAKTVTAEVQPQCGRAVGFSSGTENPHGVKAVTRGQRCAIALWFTLDPRHSERDRVQADDLVKMLFSPEEMDLSQEQPLDAQQGPPEPAQESLSGSESKPKDEL
B2: PCP-P3H1H659A: PCP complex with P3H1 active-site mutation H659A (protein)
chain: B1 chain with A567D, H637A
B3: PCP-P3H1R669A: PCP complex with P3H1 active-site mutation R669A (protein)
chain: B1 chain with A567D, R647A
B4: P3H1/CRTAP: purified P3H1/CRTAP binary complex obtained when PPIB was excluded from co-transfection (protein)
chain 1: B1 chain with A567D
chain 2: QYERYSFRSFPRDELMPLESAYRHALDKYSGEHWAESVGYLEISLRLHRLLRDSEAFCHRNCSAAPQPEPAAGLASYPELRLFGGLLRRAHCLKRCKQGLPAFRQSQPSREVLADFQRREPYKFLQFAYFKANNLPKAIAAAHTFLLKHPDDEMMKRNMAYYKSLPGAEDYIKDLETKSYESLFIRAVRAYNGENWRTSITDMELALPDFFKAFYECLAACEGSREIKDFKDFYLSIADHYVEVLECKIQCEENLTPVIGGYPVEKFVATMYHYLQFAYYKLNDLKNAAPCAVSYLLFDQNDKVMQQNLVYYQYHRDTWGLSDEHFQPRPEAVQFFNVTTLQKELYDFAKENIMDDDEGEVVEYVDDLLELEETS
modifications: left off: twin Strep tag, C-terminal, kept
B5: PCP-P3H1H587A: PCP complex with P3H1 active-site mutation H587A (protein)
chain: B1 chain with H565A, A567D
B6: PCP-P3H1W675L: PCP complex with OI-related P3H1 mutation W675L near the active site (protein)
chain: B1 chain with A567D, W653L
B7: D106A/D^P3H1 (protein, UniProt Q32P28 23-736, looked up, variant D106A)
Prolyl 3-hydroxylase 1: B1 chain with D84A, A567D
B8: R76D^P3H1 (protein)
chain: B1 chain with R54D, A567D

Test system: P3H1 within the PCP complex
Assay: 2-OG dependent oxygenase activity
Assay type: biochemical, human
Conditions: Succinate-Glo assay; Fig. 1g, Fig. 3f, Supplementary Fig. 1f

Molecule	2OG-Fe (II) oxygenase / P3H1 activity, in words
B1	significantly decreased 2OG-dependent oxygenase activities
B2	significantly decreased 2OG-dependent oxygenase activities
B3	significantly decreased 2OG-dependent oxygenase activities
B4	elevated P3H1 activities
B5	significantly decreased 2OG-dependent oxygenase activities

Same assay, conditions: Succinate-Glo assay; Fig. 1g, Fig. 3f, Supplementary Fig. 1f; listed as W675L^P3H1

Molecule	2OG-Fe (II) oxygenase / P3H1 activity, in words
B6	reduced enzymatic activities

Test system: CRTAP and PPIB
Assay: Co-purification / SDS-PAGE of PCP complex with P3H1 mutants
Assay type: binding, human
Conditions: co-expression with CRTAP and PPIB, Supplementary Fig. 1c

Molecule	PCP complex formation of P3H1 active mutants
B1	could form PCP complex with CRTAP and PPIB
B2	could form PCP complex with CRTAP and PPIB
B3	could form PCP complex with CRTAP and PPIB
B5	could form PCP complex with CRTAP and PPIB

Test system: CRTAP
Assay: Strep-tactin pulldown, P3H1 mutants with CRTAP
Assay type: binding, human
Conditions: P3H1 mutations at the X-interface, Fig. 2g

Molecule	formation of the PCP complex
B7	significantly decrease the formation of the PCP complex
B8	significantly decrease the formation of the PCP complex
